According to patent US10669549B2, “Gold optimized CAR T-cells” (Chimera Bioengineering, Inc., priority 2016, dated 2020):
Where a chain is given by its changes, count along the chain named.

What was measured:
Format in all cases: cell-based
CD4+ T-cells [1] = assay: Luciferase bioluminescence of transduced T-cells, resting versus stimulated; conditions: for bioluminescence as compared to T-cells at resting: Raji target cells (activate CAR), FIG. 17; for amount of bioluminescence, comparison among RDE constructs: with either promoter (MinP or NFAT)
Excerpt: The anti-CD19 CAR cassette and the insert with the luciferase-RDE1 are transcribed in opposite directions, and the control regions for each are located in between the two insert/cassettes. The control region for the Luciferase-RDE1 insert and Luciferase-3′-UTR were either a MinP promoter or an NFAT promoter having the sequences of:
The control region of the anti-CD19 CAR cassette was the MND promoter. CD4+ T-cells were transduced with the bicistronic construct.
The transduced T cells were allowed to return to resting state, and then were tested after stimulation as follows. For the ‘no stimulation’ set, transduced T-cells were incubated for 24 h alone in medium. For the ‘Raji co-culture’ set and the “CD3/CD28 Beads” set, CD19+ Raji B cells or anti-CD3/anti-CD28 beads were incubated with the transduced T cells for 24 h. At 24 h, the T cells were stained for CD25 and CD69, which are activation markers, and subject to flow cytometry to measure these markers and luciferase expression in the T cells.
Combinations of these inserts/cassettes shown in FIG. 17 were placed in the similar lenti virus constructs. The anti-CD19 CAR cassette and the insert with the luciferase-RDE are transcribed in opposite directions, and the control regions for each are located in between the two insert/cassettes. The control region for the Luciferase-RDE insert and Luciferase-3′-UTR were either a MinP promoter or an NFAT promoter. The control region of the anti-CD19 CAR cassette was the MND promoter, and CD4+ T-cells were transduced with the bicistronic construct.
(§1) The transduced T cells were allowed to return to resting state, and then were tested after stimulation as follows. For the ‘no stimulation’ set, transduced T-cells were incubated for 24 h alone in medium. For the ‘Raji co-culture’ set CD19+ Raji B cells were incubated with the transduced T cells for 24 h. At 24 h, the T cells were stained for CD25 and CD69, which are activation markers, and subject to flow cytometry to measure these markers and luciferase expression in the T cells.

CD4+ T-cells [2] = assay: IL-12 expression of transduced T cells by ELISA, resting versus Raji co-culture
Excerpt: The anti-CD19 CAR cassette and the insert with the IL-12-RDE1 are transcribed in opposite directions, and the control regions for each are located in between the two insert/cassettes. The control region for the IL-12-RDE1 insert and IL-12 3′-UTR were either a minP promoter or an NFAT promoter. The control region of the anti-CD19 CAR cassette was the MND promoter. CD4+ T-cells were transduced with the bicistronic construct.
as §1, with “co-culture’ set,” for “co-culture’ set”, “these markers. IL-12” for “these markers and luciferase”, “T cells was measured by ELISA.” for “T cells.”

[3] = Expression from constructs with 3′-UTR RDEs after removal of microRNA binding sites; conditions: MIR186 micro-RNA sites removed from the 3′-UTR of IL-2
Excerpt: The AU-rich element from the 3′-UTR of IL-2 has mir-181 and mir 186 microRNA binding sites. Different combinations of the microRNA sites were removed from the 3′-UTR of IL-2. When the MIR186 micro-RNA sites were removed from the 3′-UTR of IL-2 the dynamic range of expression from constructs with this UTR increased 50 fold. The modified IL-2, 3′-UTR replaces CTT in the sequence with GAA and is shown below (the new GAA is underlined in the sequence):
Different combinations of the micro-RNA sites were removed from the 3′UTR of IFNg and tested for increased expression. When the mir125 micro-RNA sites were removed from the 3′-UTR of IFN-γ the expression rate from constructs with this UTR is increased.

B1: RDE1: RNA destabilizing element: endogenous 3′-UTR of IFNg (SEQ ID NO: 30), controlling luciferase or IL-12 in anti-CD19 CAR CD4+ T-cells (nucleic acid, listed as Homo sapiens)
DNA: TGGTTGTCCTGCCTGCAATATTTGAATTTTAAATCTAAATCTATTTATTAATATTTAACATTATTTATATGGGGAATATATTTTTAGACTCATCAATCAAATAAGTATTTATAATAGCAACTTTTGTGTAATGAAAATGAATATCTATTAATATATGTATTATTTATAATTCCTATATCCTGTGACTGTCTCACTTAATCCTTTGTTTTCTGACTAATTAGGCAAGGCTATGTGATTACAAGGCTTTATCTCAGGGGCCAACTAGGCAGCCAACCTAAGCAAGATCCCATGGGTTGTGTGTTTATTTCACTTGATGATACAATGAACACTTATAAGTGAAGTGATACTATCCAGTTACTGCCGGTTTGAAAATATGCCTGCAATCTGAGCCAGTGCTTTAATGGCATGTCAGACAGAACTTGAATGTGTCAGGTGACCCTGATGAAAACATAGCATCTCAGGAGATTTCATGCCTGGTGCTTCCAAATATTGTTGACAACTGTGACTGTACCCAAATGGAAAGTAACTCATTTGTTAAAATTATCAATATCTAATATATATGAATAAAGTGTAAGTTCACAACTA
increase in bioluminescence with CAR stimulation (CD4+ T-cells [1]; MinP promoter): 4.1 fold
increase in bioluminescence with CAR stimulation (CD4+ T-cells [1]; NFAT promoter): 8.5 fold
on-off response from CAR stimulation versus TCR stimulation (CD4+ T-cells [1]; NFAT promoter, luciferase): larger on-off response
bioluminescence as compared to T-cells at resting (CD4+ T-cells [1]): increase in bioluminescence
amount of bioluminescence compared with luciferase not controlled by an RDE (3′-UTR) (CD4+ T-cells [1]; all conditions, same promoter): lower amounts of bioluminescence
on-off response with NFAT promoter compared with MinP promoter and the corresponding RDE (CD4+ T-cells [1]; luciferase, Raji co-culture): larger on-off response
amount of bioluminescence, comparison among RDE constructs (CD4+ T-cells [1]): lowest amount of bioluminescence
change in IL-12 expression from resting to CAR stimulation (CD4+ T-cells [2]; MinP promoter): 6.3 fold
change in IL-12 expression from resting to CAR stimulation (CD4+ T-cells [2]; NFAT promoter): 168 fold

B2: RDE3: 3′-UTR of IL-2 modified to remove the mir186 sites (CTT replaced with GAA, SEQ ID NO: 29) (nucleic acid, listed as Homo sapiens)
DNA: TAATTAAGTGCTTCCCACTTAAAACATATCAGGCCTTCTATTTATTTAAATATTTAAATTTTATATTTATTGTTGAATGTATGGTTTGCTACCTATTGTAACTATTATTCTTAATCTTAAAACTATAAATATGGATCTTTTATGATTGAATTTGTAAGCCCTAGGGGCTCTAAAATGGTTTCACTTATTTATCCCAAAATATTTATTATTATGTTGAATGTTAAATATAGTATCTATGTAGATTGGTTAGTAAAACTATTTAATAAATTTGATAAATATAAA
increase of dynamic range of expression from constructs with this UTR [3]: 50 fold
increase in bioluminescence with CAR stimulation (CD4+ T-cells [1]; MinP promoter): 1.4 fold
increase in bioluminescence with CAR stimulation (CD4+ T-cells [1]; NFAT promoter): 1.3 fold
bioluminescence as compared to T-cells at resting (CD4+ T-cells [1]): increase in bioluminescence
amount of bioluminescence, comparison among RDE constructs (CD4+ T-cells [1]): highest amount of bioluminescence

B3: RDE2: RNA destabilizing element: endogenous 3′-UTR of IL-2 (SEQ ID NO: 28), controlling luciferase in anti-CD19 CAR CD4+ T-cells (nucleic acid, listed as Homo sapiens)
DNA: B2 DNA with G148C, A149T, A150T
increase in bioluminescence with CAR stimulation (CD4+ T-cells [1]; MinP promoter): 1.8 fold
increase in bioluminescence with CAR stimulation (CD4+ T-cells [1]; NFAT promoter): 3.1 fold
bioluminescence as compared to T-cells at resting (CD4+ T-cells [1]): increase in bioluminescence
amount of bioluminescence, comparison among RDE constructs (CD4+ T-cells [1]): between RDE3 and RDE1
